Data published in a protein production outcome set (Wang et al. 2014).

Test: label from the status in PepcDB records
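Note: failed if final PepcDB status was selected cloned or expressed and not failed if soluble or beyond.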

Row | Sequence | protein production
1 | AGKPDWDWQPAPKNEALIAAVSAAAQEGLNAAYQIREKQARTTKLREVYAAVQAAMAEQAAQAGQPAPDSVGVDNILFDLEARIVRSQILNGEPRIDGRDTRTVRP | not failed
2 | AHADFEHLPVALMKFGSDGSLRVANRAARDLLGLGHDAQPDFSDLFEGLGRAVRDWLADVAAERMPGGAEVLRLRRSEEEVFLQIALRRIVEHGRPLVLAVLNDAT | failed
3 | AHHHHHHGSKMIKVKVIGRNIEKEIEWREGMKVRDILRAVGFNTESAIAKVNGKVVLEDDEVKDGDFVEVIPVVSGG | not failed
4 | AHKLFIGGLPNYLNDDQVKELLTSFGPLKAFNLVKDSATGLSKGYAFCEYVDINVTDQAIAGLNGMQLGDKKLLVQRASVGAKNA | not failed
5 | AIACHTQVGGSMQVPEPRRPFTCSSENNVTNSFFEEAYSASFRSKLYNMVEEIEQERAKYCNSANLSYMDAFGVEKESIEEDYNKEEDRDSLCSVDIADNSETSNRSSEDLLCDNCSKSLMFLNNVFKWNDLLFCNLDCYTSAILKNQKGADVKHRVACSLSPTWHKDCVHSVQD | not failed
6 | AIAELTGQRLREGDGPDGPADDGAGAQADLEHSLLVAAEKKDEGPYRMEHFRWGSPPKDKRYGGFMTSEKSQTPLVTLFKNAIIKNAYKKGE | failed
7 | AIAMFTLPLLFPIITLPEPTGKYTVGTKAFHLIDTNRKETTVPNNHGNRELMIQVYYPAEKGSGKPSAYFENIDALAEQLAVTKGAPYIVTTHLGLTKTHSYQDAKPLQVKEKFPLLLFGHGMELYGQQNTFQLEELASQGYVVIALNFTGYAATTIFPNGKRIDSVPIEFTPNALNNMVRNWEQDTTFILNEVIKGNFDKNFTAIANLIDDDKIGMFGHSYGGATAAQMLVKDNRIKAAIDMDGGLYGDPMPKDGPQKPFMLMNAEATIQYMKEAENQKTDGIQDELFEISYLRNKTIEKPGAYTVVLPKTNHNSFTDLAAFSPIINEPGEDVSANYTLINKLVTSFFDQTLKG | failed
8 | AIAPLGEEKNGKCDGSIYVNNPHLDSMTDDILYHFNLGTSTHDLPKMFGDVKFVCVGGSPWRMKSFTEYIAKELGLVDPNAEYPNICAGTDRYAMYKVGPVLSVSHGMGIPSISIMLHELIKLLYHARCTDVTVVRIGTSGGIGLKPGTVVVTKQSVDSLFQPHLEQTILGKPVVRSTELDKELAEELLQCGKELGEFEIIIGNTMCTLDFYEGSNVFEDKCTRIAAYSFKIHVL | failed
9 | AIAPSDLAKKKAAKKKEAAKARGRTRKPEDGVNGDAEKPEIQENGAAEVNGVDSLAKELDEFELKKTEARAVTGVLASHPNSTDVHISSLSLTFHGQELLSDTSLELNSGRRYGLIGLNGTGKSMLLSAISHREVPIPEHIDIYHLTREMAPSEKTALQCVMEVDEERIKLEKEAERLAHEDSECEKLMELYERLEELDADKASMRASRILHGLGFTTSMQQKKLKDFSGGWRMRVALARALFLKPFMLLLDEPTNHLDLDACVWLEEELSQFKRILVLISHSQDFLNGVCTNIIHLHQRKLKYYTGNYDQYVKTREELEENQMKRFNWEQDQIAHMKNYIARFGHGSAKLARQAQSKEKTLQKMVASGLTERVVNDKTLSFYFPPCGKIPPPVIMVQNVSFRYSENTPYIYKNLEFGIDLDTRVALVGPNGAGKSTLLKLLTGELLPSDGMIRKHSHVKIGRYHQHLTEQLELDLSPLEYMMKCYPEIKEKEEMKKIIGRYGLTGKQQVSPIRNLSDGQKCRVCFAWLAWQNPHMLFLDEPTNHLDIETIDALAEAINDFEGGMMLVSHDFRLIQQVAQEIWVCEKQTITKWSRDILAYKEHLKSKIDKQMHDL | failed
10 | AIATSALENYINRTVAVITSDGRMIVGTLKGFDQTINLILDESHERVFSSSQGVEQVVLGLYIVRGDNVAVIGEIDEETDSALDLGNIRAEPLNSVAH | not failed
11 | AIDENKQKALAAALGQIEKQFGKGSIMRLGEDRSMDVETISTGSLSLDIALGAGGLPMGRIVELYGPESSGKTTLTLQVIAAAQREGKTCAFIDAEHALDPIYARKLGVDIDNLLCSQPDTGEQALEICDALARSGAVDVIVVDSVAALTPKAEIEGEIGDSHMGLAARMMSQAMRKLAGNLKQSNTLLIFINQIRMKIGVMFGNPETTTGGNALKFYASVRLDIRRIGAVKEGENVVGSETRVKVVKNKIAAPFKQAEFQILYGEGINFYGELVDLGVKEKLIEKAGAWYSYKGEKIGQGKANATAWLKDNPETAKEIEKKVRELLLSNPNSTPDFSVDDSEGVAETNEDF | not failed
12 | AKGSMIQFDAPDGKKANAYMVKASSPSTKYVFLIHEWWGLNDYIKKDADKLYADLGGNVNIMALDLYDGKVTANRDSAAAYMGAASATRIGSILNGAFMFAGDKAEIISMGWCFGGGWALQSSILAGNKSKGTIMYYGMTEKDPVKLAGLKGDVLGIFGSKDKWINPEMVAAFDKDLTAAGKKHTIKSFDADHAFANPSNPQFNKAYTEEAWGMSVAFIKKAFG | failed
13 | AKTWVLTNAEEGIDKGNWQINSDQLKVKDHAFSIEQKVLHGGKQEGSKILTIHSKDGLTITLSPTRGMNLLRIEGFGSRMGWDSPVKEVVNPAFINLESRNGLGWLEGFNEMMVRCGYEWTGHPVTADGQIYTLHGKAGNTPASLVEVEVADSAPYEIRIRGLVKESTFKKADLQTLTELRYVPGSNSFSLHDVLTNHADYPHDYQIIYHSNFGTPILEEGARFLAPISSISPFNDYAKSGLKTWQTYQGPTKDFDEMVFNIQPLADENHQTLAAVVNKAGDKGASIQFDTRQLPVLTLWKNTDTVKQGYVTGIEPGTSYAYPVTIERKQKRVKQLQPGASAQFDLTYTLLHDSAQVAAVEQKIAKIQGDNKVAENETPIAKE | not failed
14 | ALGVGRSGAMDQTALSQANRIVGNPDHAAVIEILNGGLKLKVLQSTVVAVTGAASHIGVSYAGQAQVKVPDYSPIALDCGDLLYIDSPHAGLRHYLAIRGGIKTEKILGSASFDTLAELGTPPLKPHDFIYSAELSVGSVLLHEKCAQQLPKIGDVVEVDVILGPRTDWFEPESLTQFFQQQWLVTQESNRIGLRLSAGLPLKRQIHGELASEGTCTGALQIPPNGQPVLFMNDHPLTGGYPVLGAIAIDHLDRVAQIPPGCLIQFRQKSEILDLDKEST | failed
15 | ALKQKIIGNGEKRVVTYAPTWREDDFISVGHYHFRWHFSLKKMMGLLPEDVMLLIRPHYLVTDRIDIKGFEDRVVIDSTTDMNEIYLITDLMVTDYSSVMFDFAILKRPMLFFAYDLEYYRDDLRGFYFDYYTELPGSIVTDETHLLAEIDQLLQNNFAELDPERFNKFAKRFVSWERGTAAQQVIEKINYRRDEK | failed
16 | ALSGSSGYKFGVLAKIVNYMKTRHQRGDTHPLTLDEILDETQHLDIGLKQKQWLMTEALVNNPKIEVIDGKYAFKPKYNVR | not failed
17 | ALSSLNIIHIAAPHLEALNIATGETINFSSREDDHAILIYKLEPTTGMLRTRAYIGQHMPLYCSAMGKIYMAFGHPDYVKSYWENHQHEIQPLTRNTITELPAMFDELAHIRESGAAMDREENELGVSCIAVPVFDIHGRVPYAVSISLSTSRLKQVGEKNLLKPLRETAQAISNELGFTVRDDLGAIT | not failed
18 | ALVNIVVTNRCDLSCFYCFFYAERAGYIYEPSIEQIKFMVRQVARQRQGSDVHVNIQITGGEPTVREDLVDVVKAIREAGAHYIQLNTNGINVARRYLDNPPGAIDYVRSLREAGVSVVYMSFDGVTPKVNWKNHYEAPFALKAFQEGGLDNVVLVPTVIRTINDHEVGDIIRFAGKHIDVVRGVNFQPVSLTGM | failed
19 | ANLYWFRADWFERPDLKKKFKDKYGYELGVPVNWSAYEDIAKFFSEDVKEIDGKKVFGHMDYGKKDPSLGWRFTDAWFSMAGSGDKGLPNGLPVDEWGIRVEDCHPVGSSITRGGDTNGPAAVFATQKYIDWLKAYAPPEAAGMTFSESGPVPSQGNVAQQIFWYTAFTADMTKPGLPVMNADGTPKWRMAPSPKGPYWKEGMKLGYQDVGSWTFLKSSDEKKRLAAWLYAQFVTSKSVSLKKTIVGLTPIRESDINSK | failed
20 | APAEIFNVVKYPAKLGDMYAYLTPPPANKKNKLPAVIWLNGGYGGIGGDDYFWTPQPVENDQTGATFRDPNMVLMIPSFRGENTNPGRYEMFYGELEDLDSAREYLASLPYVDPKRIYVVGHSTGGTRALLASEYSDKFRAIFSLGGIPDLKLRTEGRMMVELPFDKNNEEEFNVRSVYRYIKSIKTPTFYFEGHDYFWDEFNELRVVAMEHDIPLKIYNIKNGDHFNIIVPVSQLIKEKILQDTDTNKESNIRFTNEEIKWINKMVK | failed
21 | AQKLSATSRILSSSRGPAPDDIADFFGTDRAAQHITLRRLRLGNGRPYAIDNGWYNSEFAPDLLENDVYNSVYSILDRVYGVPVTQAEQTVTAVAADEDTARLLDVTPGAPLLRILRQSLSGDKPVEWCVSLYRTDRYSLKTLVTRSEDL | not failed
22 | AQTRLLIQNRLVAQRDEFDNVFHSIRDGVITYDTDFRIHFTNRSLLKMLHLPKDEAARPYEGLPAGSIFKIYNNGKEILRPMLKQVVTEESSVVIPENSFMQEVHSGSYFPVSGEVVPIRAHGKITGMALSARNIS | failed
23 | ARGHRHTCKVMVLKEEAAGSERALALDMREGQRVFHSLIVHFENDIPVQIEDRFVNAQVAPDYLKQDFTLQTPYAYLSQVAPLTEGEHVVEAILAEADECKLLQIDAGEPCLLIRRRTWSGRQPVTAARLIHPGSRHRLEGRFTK | not failed
24 | ARYLDVTSRRDPEHSHRTYYVTGQVFFASADRFTASFDLREKVETLAIDLREAHFWDITAVAALDKVVLKLRRAGISVDVVGMNRATATLVDRFGVHDKPDGIDSLMGH | failed
25 | ASLKDFELSKMLEKVAKESSVGTPRAINEDILDQGYTVEGNQLINHLSVRASHAERMRSNPDSVRSQLGDSVCSNTGYRQLLARGAILTYSFTEYKTNQPVATERFDAGSCRIQGKK | not failed
26 | ASNSQLNAMAHQIQEMFPQVPYHLVLQDLQLTRSVEITTDNILEGRIQVPF | not failed
27 | ASTVHEMGVFASLDDAVAAAKRAQQGLKSVAMRQLAIHAIREAGEKHARELAELAVSETGMGRVDDKFAKNVAQARGTPGVECLSPQVLTGDNGLTLIENAPWGVVASVTPSTNPAATVINNAISLIAAGNSVVFAPHPAAKKVSQRAITLLNQAVVAAGGPENLLVTVANPDIETAQRLFKYPGIGLLVVTGGEAVVDAARKHTNKRLIAAGAGNPPVVVDETADLPRAAQSIVKGASFDNN | failed
28 | ATEATNATNNQSTQVSQATSQPINFQVQKDGSSEKSHMDDYMQHPGKVIKQNNKYYFQTVLNNASFWKEYKFYNANNQELATTVVNDNKKADTRTINVAVEPGYKSLTTKVHIVVPQINYNHRYTTHLEFEKAIPTLADAAK | not failed
29 | ATGTTGGGCATGATCAGGAACTCACTGTTCGGGAGCGTGGAAACGTGGCCTTGGCAGGTTCTAAGCACCGGGGGCAAGGAAGATGTCTCCTATGAGGAAAGAGCCTGTGAAGGGGGCAAGTTTGCTACTGNGGAAGTGACAGACAAGCCAGTGGATGAGGCTCTCCGGGAAGCGATGCCCAAGATCATGAAGTATGTGGGTGGCACCAATGACAAAGGAGTCGGCATGGGTATGACAGTCCCTGTCTCTTTTGCCGTGTTTCCCAATGAAGATGGCTCCCTACAGAAGAAACTGAAAGTCTGGTTCCGGATTCCGAACCAATTTCAAGGCAGCCCACCGGCCCCCAGTGACGAGAGTGTGAAGATCGAGGAACGGGAGGGCATCACTGTCTATTCCACGCAATTTGGAGGCTATGCCAAGGAAGCAGACTATGTTGCTCATGCCACCCAGCTACGGACCACACTGGAGGGCACACCAGCGACCTACCAGGGTGATGTCTACTACTGTGCCGGATATGACCCTCCCATGAAGCCCTATGGACGCCGTAACGAGGTCTGGCTTGTGAAGGCATGA | not failed
